In article doi:10.1101/162842:

Target: mCardinal
Experiment: SEC + AUC

- stoichiometry N: 2
Substance: mCardinal
